Molecular target: zo2_human TJP2 (UniProt Q9UDY2)
Sequence (Q9UDY2 whole entry): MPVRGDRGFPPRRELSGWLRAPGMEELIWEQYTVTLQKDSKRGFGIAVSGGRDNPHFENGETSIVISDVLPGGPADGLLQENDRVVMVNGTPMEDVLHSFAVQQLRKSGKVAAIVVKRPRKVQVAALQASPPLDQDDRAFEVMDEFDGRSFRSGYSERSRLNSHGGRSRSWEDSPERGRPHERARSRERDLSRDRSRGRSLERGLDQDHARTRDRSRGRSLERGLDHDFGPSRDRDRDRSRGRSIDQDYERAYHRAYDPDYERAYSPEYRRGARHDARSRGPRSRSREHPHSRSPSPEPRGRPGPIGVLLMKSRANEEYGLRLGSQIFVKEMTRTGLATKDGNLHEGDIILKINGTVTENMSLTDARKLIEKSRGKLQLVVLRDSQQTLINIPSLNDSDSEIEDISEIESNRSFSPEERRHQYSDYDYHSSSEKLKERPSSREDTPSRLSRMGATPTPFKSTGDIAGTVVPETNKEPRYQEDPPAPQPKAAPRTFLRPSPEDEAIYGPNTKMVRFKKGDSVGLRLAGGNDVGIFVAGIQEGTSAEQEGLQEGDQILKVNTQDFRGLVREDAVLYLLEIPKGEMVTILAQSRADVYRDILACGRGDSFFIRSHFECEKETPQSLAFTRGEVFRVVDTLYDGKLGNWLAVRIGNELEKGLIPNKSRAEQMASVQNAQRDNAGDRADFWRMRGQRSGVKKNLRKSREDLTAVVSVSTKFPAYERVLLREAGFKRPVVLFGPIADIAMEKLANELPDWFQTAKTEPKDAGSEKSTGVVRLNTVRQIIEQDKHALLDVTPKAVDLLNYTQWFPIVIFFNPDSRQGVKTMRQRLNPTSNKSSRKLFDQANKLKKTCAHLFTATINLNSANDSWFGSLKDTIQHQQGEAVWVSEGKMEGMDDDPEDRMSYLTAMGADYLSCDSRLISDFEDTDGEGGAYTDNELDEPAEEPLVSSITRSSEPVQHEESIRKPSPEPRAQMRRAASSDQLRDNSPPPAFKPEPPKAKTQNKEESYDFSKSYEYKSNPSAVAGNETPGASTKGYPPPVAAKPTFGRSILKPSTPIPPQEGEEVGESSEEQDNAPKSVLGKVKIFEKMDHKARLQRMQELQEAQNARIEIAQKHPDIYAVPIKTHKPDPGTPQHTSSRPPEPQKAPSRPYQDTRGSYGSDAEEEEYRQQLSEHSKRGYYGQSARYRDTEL

Protein scribble homolog (Homo sapiens), Q14160-1 P305L, sequence (Q14160 other isoform, or with tags, fused parts or gaps P305L): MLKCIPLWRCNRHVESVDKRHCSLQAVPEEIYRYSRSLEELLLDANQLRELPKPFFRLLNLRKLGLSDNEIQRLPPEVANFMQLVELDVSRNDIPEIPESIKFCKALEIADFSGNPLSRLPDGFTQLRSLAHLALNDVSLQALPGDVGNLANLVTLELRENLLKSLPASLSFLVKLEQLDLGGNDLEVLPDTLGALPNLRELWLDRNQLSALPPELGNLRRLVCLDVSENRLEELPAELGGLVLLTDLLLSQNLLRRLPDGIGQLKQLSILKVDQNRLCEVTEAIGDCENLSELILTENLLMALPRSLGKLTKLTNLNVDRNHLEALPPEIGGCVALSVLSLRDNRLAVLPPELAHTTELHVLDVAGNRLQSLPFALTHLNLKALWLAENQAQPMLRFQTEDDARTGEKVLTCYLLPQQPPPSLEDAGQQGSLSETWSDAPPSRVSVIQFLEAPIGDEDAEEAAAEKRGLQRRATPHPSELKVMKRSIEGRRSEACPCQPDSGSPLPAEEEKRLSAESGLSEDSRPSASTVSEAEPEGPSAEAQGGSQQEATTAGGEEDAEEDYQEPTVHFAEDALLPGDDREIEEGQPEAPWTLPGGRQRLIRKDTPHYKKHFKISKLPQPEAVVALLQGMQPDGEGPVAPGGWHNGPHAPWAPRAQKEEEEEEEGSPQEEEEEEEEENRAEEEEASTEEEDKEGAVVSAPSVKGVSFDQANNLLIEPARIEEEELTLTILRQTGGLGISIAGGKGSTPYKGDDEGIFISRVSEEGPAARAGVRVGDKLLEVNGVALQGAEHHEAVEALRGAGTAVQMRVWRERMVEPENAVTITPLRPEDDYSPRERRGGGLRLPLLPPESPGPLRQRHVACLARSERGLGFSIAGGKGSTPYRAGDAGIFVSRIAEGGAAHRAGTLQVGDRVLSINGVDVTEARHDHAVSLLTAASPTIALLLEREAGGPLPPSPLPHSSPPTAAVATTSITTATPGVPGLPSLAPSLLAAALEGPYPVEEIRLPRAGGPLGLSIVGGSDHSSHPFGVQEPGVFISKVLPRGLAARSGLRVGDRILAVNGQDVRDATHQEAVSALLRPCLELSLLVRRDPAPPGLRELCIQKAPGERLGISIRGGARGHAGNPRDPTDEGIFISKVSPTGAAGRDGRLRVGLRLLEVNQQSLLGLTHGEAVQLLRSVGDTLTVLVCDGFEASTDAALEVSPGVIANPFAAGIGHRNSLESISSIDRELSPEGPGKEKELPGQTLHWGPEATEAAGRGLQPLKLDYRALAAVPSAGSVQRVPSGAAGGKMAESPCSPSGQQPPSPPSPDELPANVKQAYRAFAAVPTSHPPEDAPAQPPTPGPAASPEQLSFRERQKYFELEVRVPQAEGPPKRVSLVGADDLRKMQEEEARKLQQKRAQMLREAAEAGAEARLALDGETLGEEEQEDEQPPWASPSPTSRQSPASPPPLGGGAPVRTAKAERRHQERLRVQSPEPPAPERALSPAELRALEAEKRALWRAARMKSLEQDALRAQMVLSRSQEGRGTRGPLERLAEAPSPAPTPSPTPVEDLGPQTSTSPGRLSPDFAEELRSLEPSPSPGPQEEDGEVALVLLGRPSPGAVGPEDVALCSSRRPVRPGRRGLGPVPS

Protein scribble homolog (Homo sapiens), Q14160-1 P305L
effect of a mutation on the interaction: decreasing interaction

From IntAct's records for PubMed 15975580
